# Reference: patent publication US20240158448A1 (published 2024)
# No end group written: not given here. FAM = 5(6)-carboxyfluorescein
# T1: mouse SIRPα expressed on J774A.1 macrophages (mouse, UniProt P97797 32-513)
# T1 chain: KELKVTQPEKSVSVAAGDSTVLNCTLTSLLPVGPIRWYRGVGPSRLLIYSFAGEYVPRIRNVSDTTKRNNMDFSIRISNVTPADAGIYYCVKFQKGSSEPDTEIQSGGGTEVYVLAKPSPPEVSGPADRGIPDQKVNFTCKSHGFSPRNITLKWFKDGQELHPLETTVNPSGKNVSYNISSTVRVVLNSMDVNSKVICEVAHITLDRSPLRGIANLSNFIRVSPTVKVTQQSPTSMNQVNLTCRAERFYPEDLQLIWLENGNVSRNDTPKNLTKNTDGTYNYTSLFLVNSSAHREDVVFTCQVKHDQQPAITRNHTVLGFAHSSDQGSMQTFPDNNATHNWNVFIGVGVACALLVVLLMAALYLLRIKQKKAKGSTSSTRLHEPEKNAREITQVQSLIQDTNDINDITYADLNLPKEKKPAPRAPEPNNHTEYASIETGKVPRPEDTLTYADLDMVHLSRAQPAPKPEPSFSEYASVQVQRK
# How the values were obtained:
# [1] = biological target: T2, human SIRPα expressed on cells (PMA-differentiated THP-1 macrophages; A549 cells) (human, UniProt P78324 31-504); experiment: fluorescence microscopy saturation binding; live THP-1 macrophages, corrected by subtracting nS-X-FAM
# [2] = biological target: T2, human SIRPα expressed on cells …; experiment: fluorescence microscopy saturation binding; live THP-1 macrophages
# [3] = biological target: T1, mouse SIRPα expressed on J774A.1 …; experiment: fluorescence microscopy saturation binding; live J774A.1 macrophages
# [4] = biological target: T2, human SIRPα expressed on cells …; experiment: fluorescence microscopy saturation binding; fixed THP-1 macrophages
Kd [1],Kd [2],Kd [3],Kd [4],Binder
93 µM,195 µM,–,–,K(FAM)VTELFREG-NH2 [FAM-labeled nS-F]
52 µM,148 µM,138 µM,–,K(FAM)VTELTREG-NH2 [FAM-labeled nS-wt]
123 µM,161 µM,203 µM,32 µM,K(FAM)VTELVREG-NH2 [FAM-labeled nS-V]
–,916 µM,–,–,K(FAM)LETVEGTR-NH2 [FAM-labeled nS-X]
